Results on 9 molecules are retold here after publication PMC11965522.

One series concerns the target Mre11;Rad50 K172E (Pyrococcus furiosus;Pyrococcus furiosus, UniProt Q8U1N9;P58301 1-426;1-882, |K172E). Briefly: fluorescence polarization.
Another series concerns the target Mre11;Rad50 R833E/R834E (Pyrococcus furiosus;Pyrococcus furiosus, UniProt Q8U1N9;P58301 1-426;1-882, |R833E;R834E). The experiment in a line: fluorescence polarization.
Series [1] concerns the target Mre11 K144E;Rad50 full-length (Pyrococcus furiosus;Pyrococcus furiosus, UniProt Q8U1N9;P58301 1-426;1-882, K144E|). The experiment in a line: fluorescence polarization. (In general: Polarisation of emitted light reports the rotation of a fluorescent probe.)
The target of the next series is Mre11;Rad50 S115E/S116E (Pyrococcus furiosus;Pyrococcus furiosus, UniProt Q8U1N9;P58301 1-426;1-882, |S115E;S116E). Briefly: fluorescence polarization.
For the next series, the target named is Mre11;Rad50 R868E (Pyrococcus furiosus;Pyrococcus furiosus, UniProt Q8U1N9;P58301 1-426;1-882, |R868E). Briefly: fluorescence polarization.
Series [2] deals with Mre11 K365E;Rad50 full-length (Pyrococcus furiosus;Pyrococcus furiosus, UniProt Q8U1N9;P58301 1-426;1-882, K365E|). The experiment in a line: fluorescence polarization.
The target of series [3] is Mre11 K111E;Rad50 full-length (Pyrococcus furiosus;Pyrococcus furiosus, UniProt Q8U1N9;P58301 1-426;1-882, K111E|). The experiment in a line: fluorescence polarization.
A further series concerns the target Mre11;Rad50 full-length (Pyrococcus furiosus;Pyrococcus furiosus, UniProt Q8U1N9;P58301 1-426;1-882, |). Briefly: fluorescence polarization.
Series [4] concerns the target Mre11 R160E;Rad50 full-length (Pyrococcus furiosus;Pyrococcus furiosus, UniProt Q8U1N9;P58301 1-426;1-882, R160E|). The experiment in a line: fluorescence polarization.
For series [5], the target named is T1, Mre11;Rad50NBD (Pyrococcus furiosus;Pyrococcus furiosus, UniProt Q8U1N9;P58301;P58301 1-426;1-195;709-882, |). Briefly: NMR CSP.
Series [6] has as its target T1, Mre11;Rad50NBD. The experiment in a line: NMR PRE.
For series [7], the target named is T1, Mre11;Rad50NBD. The experiment in a line: NMR CSP titration.

By Kd is commonly meant the free concentration of one partner at which half of the binding sites on the other are occupied at equilibrium, for simple one-to-one binding.

T1 sequence (P58301 1-195, chain 1 of 2): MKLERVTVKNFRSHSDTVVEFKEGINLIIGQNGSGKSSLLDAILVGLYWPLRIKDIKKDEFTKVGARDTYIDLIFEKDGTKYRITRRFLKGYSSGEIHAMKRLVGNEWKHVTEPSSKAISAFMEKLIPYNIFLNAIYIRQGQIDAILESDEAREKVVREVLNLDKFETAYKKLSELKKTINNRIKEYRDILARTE
T1 sequence (P58301 709-882, chain 2 of 2): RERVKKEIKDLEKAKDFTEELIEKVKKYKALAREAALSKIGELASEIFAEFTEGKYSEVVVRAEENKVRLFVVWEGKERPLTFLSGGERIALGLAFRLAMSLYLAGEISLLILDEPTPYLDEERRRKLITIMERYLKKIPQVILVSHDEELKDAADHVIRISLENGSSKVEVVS
Sequence of Mre11;Rad50 R868E (P58301 whole entry R868E, one chain of several): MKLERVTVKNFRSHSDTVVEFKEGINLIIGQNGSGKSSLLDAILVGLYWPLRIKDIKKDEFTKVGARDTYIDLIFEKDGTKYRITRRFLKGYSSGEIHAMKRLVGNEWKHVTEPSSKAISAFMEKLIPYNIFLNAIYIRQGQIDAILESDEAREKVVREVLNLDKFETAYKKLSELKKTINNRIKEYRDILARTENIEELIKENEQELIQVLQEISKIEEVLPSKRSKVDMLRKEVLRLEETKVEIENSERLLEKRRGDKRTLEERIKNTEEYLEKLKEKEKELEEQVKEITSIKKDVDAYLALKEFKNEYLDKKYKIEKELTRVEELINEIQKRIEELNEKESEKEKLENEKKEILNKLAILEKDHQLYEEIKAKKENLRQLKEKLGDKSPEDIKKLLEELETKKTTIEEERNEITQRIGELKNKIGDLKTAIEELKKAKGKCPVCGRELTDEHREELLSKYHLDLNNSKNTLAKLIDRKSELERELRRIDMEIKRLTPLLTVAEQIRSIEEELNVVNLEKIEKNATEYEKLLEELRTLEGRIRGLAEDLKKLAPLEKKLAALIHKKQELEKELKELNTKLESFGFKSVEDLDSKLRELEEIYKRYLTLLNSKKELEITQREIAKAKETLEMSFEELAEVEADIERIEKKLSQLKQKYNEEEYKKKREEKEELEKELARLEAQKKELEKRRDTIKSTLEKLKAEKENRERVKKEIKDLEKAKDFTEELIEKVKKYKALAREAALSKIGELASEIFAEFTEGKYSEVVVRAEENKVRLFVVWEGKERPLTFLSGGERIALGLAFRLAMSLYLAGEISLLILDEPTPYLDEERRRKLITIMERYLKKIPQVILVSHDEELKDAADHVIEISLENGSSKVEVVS
Sequence of Mre11 K365E;Rad50 full-length (P58301 whole entry K365E, one chain of several): as the sequence (P58301 whole entry R868E, one chain of several) above, with K365E, E868R counted along it
Sequence of Mre11;Rad50 R833E/R834E (P58301 whole entry R833E/R834E, one chain of several): as the sequence (P58301 whole entry R868E, one chain of several) above, with R833E, R834E, E868R counted along it
Sequence of Mre11;Rad50 K172E (P58301 whole entry K172E, one chain of several): as the sequence (P58301 whole entry R868E, one chain of several) above, with K172E, E868R counted along it
Sequence of Mre11;Rad50 S115E/S116E (P58301 whole entry S115E/S116E, one chain of several): as the sequence (P58301 whole entry R868E, one chain of several) above, with S115E, S116E, E868R counted along it
Sequence of Mre11 R160E;Rad50 full-length (P58301 whole entry, stated change not applied, one chain of several): as the sequence (P58301 whole entry R868E, one chain of several) above, with E868R counted along it
Sequence of Mre11 K144E;Rad50 full-length (P58301 whole entry, stated change not applied, one chain of several): as the sequence (P58301 whole entry R868E, one chain of several) above, with E868R counted along it
Sequence of Mre11 K111E;Rad50 full-length (P58301 whole entry, stated change not applied, one chain of several): as the sequence (P58301 whole entry R868E, one chain of several) above, with E868R counted along it
Sequence of Mre11;Rad50 full-length (P58301 whole entry, one chain of several): as the sequence (P58301 whole entry R868E, one chain of several) above, with E868R counted along it

B1: 40-mer dsDNA (dsDNA)
DNA 1: GTGTTCGGACTCTGCCTCAAGACGGTAGTCAACGTGCTTG
DNA 2: CAAGCACGTTGACTACCGTCTTGAGGCAGAGTCCGAACAC
As for B1, the Kd with Mre11;Rad50 K172E was 580 ± 30 nM; in the series with Mre11;Rad50 R833E/R834E, 1080 ± 130 nM; in series [1], 2120 ± 420 nM; in the series with Mre11;Rad50 S115E/S116E, 580 ± 60 nM; in the series with Mre11;Rad50 R868E, 750 ± 70 nM; in series [2] it was 710 ± 50 nM. Also, the figures for the Kd (in series [3]; with Mre11;Rad50 full-length; in series [4]) were 1070 ± 110 nM, 590 ± 50 nM and 960 ± 60 nM, respectively.

B2: 50-bp dsDNA (dsDNA)
DNA 1: CTGCAGGGTTTTTGTTCCAGTCTGTAGCACTGTGTAAGACAGGCCAGATG
DNA 2: CATCTGGCCTGTCTTACACAGTGCTACAGACTGGAACAAAAACCCTGCAG
On to B2, for which the binding result in the series with Mre11;Rad50NBD [5] is “binds”.

For CACGCACGTAGAAGCTTTTGCTTCTACGTGCGTGAC (structured_DNA, phosphorothioate at nt 2) [hairpin 2S], the binding result with Mre11;Rad50NBD [6] is recorded as “binds”.

On to CACGCACGTAGAAGCTTTTGCTTCTACGTGCGTGAC (structured_DNA, phosphorothioate at nt 30) [hairpin 30S], for which the binding result with Mre11;Rad50NBD [6] was “binds”.

On to CACGCACGTAGAAGCTTTTGCTTCTACGTGCGTGAC (structured_DNA, phosphorothioate at nt 24) [hairpin 24S], for which the binding result in the series with Mre11;Rad50NBD [6] is recorded as “binds”.

CACGCACGTAGAAGCTTTTGCTTCTACGTGCGTGAC (structured_DNA) [15-bp hairpin DNA] showed a dissociation constant Kd with Mre11;Rad50NBD [7] of approximately 5400 nM.

As for CACGCACGTAGAAGCTTTTGCTTCTACGTGCGTGAC (structured_DNA, phosphorothioate at nt 36) [hairpin 36S], in the series with Mre11;Rad50NBD [6], the binding result is on record as “binds”.

Consider CACGCACGTAGAAGCTTTTGCTTCTACGTGCGTGAC (structured_DNA, phosphorothioate at nt 6) [hairpin 6S], for which the binding result with Mre11;Rad50NBD [6] is given as “binds”.

Turning to CACGCACGTAGAAGCTTTTGCTTCTACGTGCGTGAC (structured_DNA, phosphorothioate at nt 17) [hairpin 17S], the binding result with Mre11;Rad50NBD [6] is “binds”.
